Reference: patent US20200138979A1 (REGENTS OF THE UNIVERSITY OF MICHIGAN, published 2020)
Values belong to the binder of their own block, whether it stands above or below them. Where no end group is shown, it is not given here.

Columns and labels:
[1] = biological target: T1, recombinant FGFR2-ECD (Met1-Glu377), extracellular domain of FGFR2c (UniProt P21802 22-377, glycosylated); experiment: phage display biopanning (4 rounds) against immobilized recombinant FGFR2-ECD; peptide displayed on M13 phage
T1 construct: range 1-377; Bought construct; also called #10824-H08H-50, Sino Biological
Protocol: Peptide selection was performed using a phage display library (New England Biolabs, Ph.D.-12) per manufacturer instructions. This library consists of M13 bacteriophage that expresses ˜10⁹ unique 12-amino acid sequences. 2×10¹¹ pfu consisting of 2×10⁹ unique clones with ˜100 copies each were biopanned against FGFR2-ECD immobilized in a 6-well plate at 4° C. Four rounds of biopanning were performed using a decreasing quantity (100, 80, 60, and 40 μg) of FGFR2-ECD in successive rounds to increase binding specificity. After the 4th round, 50 plaques were randomly selected for DNA preparation and sequence analysis. We used an ABI Automatic DNA Analyzer (Applied Biosystems) with primer 5′-[…] TTA GCG TAA CG-3′ (−96 gIII sequencing primer, New England Biolabs) that corresponds to the pIII gene sequence of the M13 phage.

[2] = biological target: FGFR2c (fibroblast growth factor receptor 2, isoform IIIc) stably expressed on QhTERT cells (UniProt P21802); experiment: flow cytometry on cells overexpressing FGFR2 (same experiment as kd=68 nM, printed with more digits)
[3] = biological target: FGFR2c (fibroblast growth factor receptor 2, isoform IIIc) stably expressed on QhTERT cells (UniProt P21802); experiment: flow cytometry time course, 5 µM peptide on QhTERT cells expressing FGFR2c, first order kinetics fit
[4] = biological target: FGFR2c (fibroblast growth factor receptor 2, isoform IIIc) stably expressed on QhTERT cells (UniProt P21802); experiment: flow cytometry time course, 5 µM peptide on QhTERT cells expressing FGFR2c
[5] = biological target: FGFR2c (fibroblast growth factor receptor 2, isoform IIIc) stably expressed on QhTERT cells (UniProt P21802); experiment: flow cytometry, apparent dissociation constant on QhTERT cells expressing FGFR2c, 0-200 nM peptide, 4° C.

Chain of FGFR2c (fibroblast growth factor receptor 2, isoform IIIc) stably expressed on QhTERT cells (P21802 22-821): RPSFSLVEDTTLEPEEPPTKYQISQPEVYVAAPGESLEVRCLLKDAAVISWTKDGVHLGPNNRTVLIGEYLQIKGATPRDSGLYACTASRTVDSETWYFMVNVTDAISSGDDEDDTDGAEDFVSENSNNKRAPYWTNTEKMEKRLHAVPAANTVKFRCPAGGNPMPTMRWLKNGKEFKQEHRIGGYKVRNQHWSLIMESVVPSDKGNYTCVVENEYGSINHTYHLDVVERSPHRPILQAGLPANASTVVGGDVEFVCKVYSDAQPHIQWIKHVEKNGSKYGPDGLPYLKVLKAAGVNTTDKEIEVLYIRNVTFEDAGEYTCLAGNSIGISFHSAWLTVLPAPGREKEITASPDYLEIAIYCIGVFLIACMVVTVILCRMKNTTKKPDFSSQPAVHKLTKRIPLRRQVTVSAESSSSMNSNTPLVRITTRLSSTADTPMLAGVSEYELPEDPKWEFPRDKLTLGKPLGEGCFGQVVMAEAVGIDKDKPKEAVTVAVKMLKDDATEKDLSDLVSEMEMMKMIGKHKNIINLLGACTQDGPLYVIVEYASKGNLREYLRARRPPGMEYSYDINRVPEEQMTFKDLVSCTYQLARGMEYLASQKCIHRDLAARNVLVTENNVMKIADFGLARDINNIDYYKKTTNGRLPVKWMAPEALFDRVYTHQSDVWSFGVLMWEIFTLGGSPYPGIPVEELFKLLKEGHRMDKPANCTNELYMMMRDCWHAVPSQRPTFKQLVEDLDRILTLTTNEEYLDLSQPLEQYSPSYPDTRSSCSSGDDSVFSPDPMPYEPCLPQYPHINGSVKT
T1 sequence (P21802 22-377 limits assumed): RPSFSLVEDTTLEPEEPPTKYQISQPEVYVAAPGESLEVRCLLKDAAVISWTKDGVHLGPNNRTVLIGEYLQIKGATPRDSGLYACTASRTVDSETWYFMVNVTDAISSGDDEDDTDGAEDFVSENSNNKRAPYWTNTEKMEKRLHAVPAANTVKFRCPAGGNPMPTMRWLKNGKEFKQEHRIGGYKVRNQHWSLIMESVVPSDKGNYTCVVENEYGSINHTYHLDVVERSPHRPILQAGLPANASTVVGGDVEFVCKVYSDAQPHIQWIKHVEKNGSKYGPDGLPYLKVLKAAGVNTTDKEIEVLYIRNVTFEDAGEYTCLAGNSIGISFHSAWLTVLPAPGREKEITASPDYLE

binding result [1]: binds
B1: SRR* peptide SRRPASFRTARE, unlabeled (peptide)
peptide: SRRPASFRTARE
notes: also called unlabeled SRR*; SSR peptide

Kd [2]: 67.9 nM | apparent association time constant k [3]: 0.16 min⁻¹ | time scale for onset of binding [4]: 6.2 min | Kd [5]: 68 nM
B2: SRR*-Cy5.5 (peptide … with Cy5.5 attached via a C-terminal GGGSK linker) (peptide)
peptide: SRRPASFRTAREGGGSK(Cy5.5)-NH2
